Key:
[1] = target: the molecule itself; assay: crystal structure; native apo enzyme; crystals from 50 mM PIPES pH 6.5, 50% ammonium sulfate, room temperature; P212121, two subunits in the asymmetric unit; 1.9 A
[2] = target: the molecule itself; assay: crystal structure; overexpressed enzyme co-crystallised with 20 mM FMN, 5 mM NADH, 5 mM (-)-camphor; 100 mM HEPES pH 7.0, 20% PEG 3350, 18 C; P212121, one dimer in the asymmetric unit; 1.9 A

B1: native 3,6-diketocamphane 1,6-monooxygenase, oxygenating component (enzyme, Pseudomonas putida NCIMB 10007, UniProt D7UER1 1-378, looked up)
chain: MAMETGLIFHPYMRPGRSARQTFDWGIKSAVQADSVGIDSMMISEHASQIWENIPNPELLIAAAALQTKNIKFAPMAHLLPHQHPAKLATMIGWLSQILEGRYFLGIGAGAYPQASYMHGIRNAGQSNTATGGEETKNLNDMVRESLFIMEKIWKREPFFHEGKYWDAGYPEELEGEEGDEQHKLADFSPWGGKAPEIAVTGFSYNSPSMRLAGERNFKPVSIFSGLDALKRHWEVYSEAAIEAGHTPDRSRHAVSHTVFCADTDKEAKRLVMEGPIGYCFERYLIPIWRRFGMMDGYAKDAGIDPVDADLEFLVDNVFLVGSPDTVTEKINALFEATGGWGTLQVEAHDYYDDPAPWFQSLELISKEVAPKILLPKR
notes: 3,6-diketocamphane 1,6-monooxygenase (3,6-DKMO; EC 1.14.13.-), oxygenating component, encoded on the CAM plasmid of Pseudomonas putida NCIMB 10007; monomer 42.3 kDa; residues up to 378 are numbered in the model (A1, A128-133, A176-180, A377-378, B1, B127-135, B176-179 not modelled); also called 3,6-DKMO; native 3,6-DKMO
[1]
  stoichiometry N: 2

B2: recombinant (overexpressed) 3,6-diketocamphane 1,6-monooxygenase, oxygenating component, N-terminally hexahistidine-tagged (enzyme, Pseudomonas putida)
chain: B1 chain
notes: 3,6-diketocamphane 1,6-monooxygenase (3,6-DKMO), oxygenating component, the 3,6-DKMO gene of the CAM plasmid of Pseudomonas putida in pET-28b; residues A126-135, A176-179, A377-378, B125-135, B176-179 not modelled in the FMN complex; Crystallised with 20 mM FMN, 5 mM NADH and 5 mM (-)-camphor; only FMN (occupancy 0.6) seen; also called overexpressed 3,6-DKMO; recombinant 3,6-DKMO; source: E. coli …
[2]
  stoichiometry N: 2

Reference: paper PMC4631483, “The oxygenating constituent of 3,6-diketocamphane monooxygenase from the CAM plasmid of Pseudomonas putida: the first crystal structure of a type II Baeyer–Villiger monooxygenase” (Acta Crystallographica Section D: Biological Crystallography, 2015)
